B1: GST-fused APB (PIF3 1-113 a.a.) (domain or fragment)
chain: MPLFELFRLTKAKLESAQDRNPSPPVDEVVELVWENGQISTQSQSSRSRNIPPPQANSSRAREIGNGSKTTMVDEIPMSVPSLMTGLSQDDDFVPWLNHHPSLDGYCSDFLRD
B2: SBP-fused phyB^PSM (domain or fragment)
chain: MVSGVGGSGGGRGGGRGGEEEPSSSHTPNNRRGGEQAQSSGTKSLRPRSNTESMSKAIQQYTVDARLHAVFEQSGESGKSFDYSQSLKTTTYGSSVPEQQITAYLSRIQRGGYIQPFGCMIAVDESSFRIIGYSENAREMLGIMPQSVPTLEKPEILAMGTDVRSLFTSSSSILLERAFVAREITLLNPVWIHSKNTGKPFYAILHRIDVGVVIDLEPARTEDPALSIAGAVQSQKLAVRAISQLQALPGGDIKLLCDTVVESVRDLTGYDRVMVYKFHEDEHGEVVAESKRDDLEPYIGLHYPATDIPQASRFLFKQNRVRMIVDCNATPVLVVQDDRLTQSMCLVGSTLRAPHGCHSQYMANMGSIASLAMAVIINGNEDDGSNVASGRSSMRLWGLVVCHHTSSRCIPFPLRYACEFLMQAFGLQLNMELQLALQMSEKRVLRTQTLLCDMLLRDSPAGIVTQSPSIMDLVKCDGAAFLYHGKYYPLGVAPSEVQIKDVVEWLLANHADSTGLSTDSLGDAGYPGAAALGDAVCGMAVAYITKRDFLFWFRSHTAKEIKWGGAKHHPEDKDDGQRMHPRSSFQAFLEVVKSRSQPWETAEMDAIHSLQLILRDSFKESEAAMNSKVVDGVVQPCRDMAGEQGIDELGAV
modifications: chromophore-bound (phycocyanobilin, PCB)

What all share (assay): pull-down
The assay “SBP-fused phyB^PSM” addresses B2.
Assay [1] concerns the target B1.
For assay [2], the target named is T1, SBP-fused full-length phyA (Arabidopsis thaliana, UniProt P14712 1-1122, chromophore-bound (phycocyanobilin, PCB)).
T1 sequence: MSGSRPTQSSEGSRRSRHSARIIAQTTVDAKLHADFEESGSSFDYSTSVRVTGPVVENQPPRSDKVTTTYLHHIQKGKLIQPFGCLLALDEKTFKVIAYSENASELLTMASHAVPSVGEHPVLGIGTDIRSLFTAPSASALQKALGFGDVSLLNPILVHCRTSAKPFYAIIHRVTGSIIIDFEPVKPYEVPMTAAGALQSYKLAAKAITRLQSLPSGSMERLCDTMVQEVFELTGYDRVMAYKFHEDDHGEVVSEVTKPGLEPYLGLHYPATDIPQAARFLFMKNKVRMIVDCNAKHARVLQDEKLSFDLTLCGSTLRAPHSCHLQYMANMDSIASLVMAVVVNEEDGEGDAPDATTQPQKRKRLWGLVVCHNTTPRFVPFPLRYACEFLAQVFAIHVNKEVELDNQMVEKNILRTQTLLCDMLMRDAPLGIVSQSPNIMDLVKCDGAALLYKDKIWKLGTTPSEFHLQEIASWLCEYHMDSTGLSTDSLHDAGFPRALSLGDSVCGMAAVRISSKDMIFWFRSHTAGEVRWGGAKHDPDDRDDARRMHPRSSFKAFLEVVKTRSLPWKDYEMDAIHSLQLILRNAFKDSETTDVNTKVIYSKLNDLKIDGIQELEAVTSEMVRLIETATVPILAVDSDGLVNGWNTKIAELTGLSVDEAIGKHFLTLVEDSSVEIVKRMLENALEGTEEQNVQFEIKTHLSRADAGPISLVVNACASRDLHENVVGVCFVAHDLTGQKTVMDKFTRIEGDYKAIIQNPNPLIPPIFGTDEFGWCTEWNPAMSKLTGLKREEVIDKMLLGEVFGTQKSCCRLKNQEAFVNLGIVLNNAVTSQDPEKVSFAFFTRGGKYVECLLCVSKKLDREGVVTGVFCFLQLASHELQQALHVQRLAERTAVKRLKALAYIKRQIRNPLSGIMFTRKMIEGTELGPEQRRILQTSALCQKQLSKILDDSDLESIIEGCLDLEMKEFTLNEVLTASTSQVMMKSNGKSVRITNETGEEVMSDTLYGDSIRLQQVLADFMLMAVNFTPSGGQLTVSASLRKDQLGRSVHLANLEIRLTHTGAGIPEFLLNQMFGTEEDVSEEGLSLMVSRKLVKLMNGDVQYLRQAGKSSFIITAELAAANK

Another assay concerns the target T2, MBP-fused phyB^OPM (Arabidopsis thaliana, UniProt P14713 642-1172).
T2 sequence: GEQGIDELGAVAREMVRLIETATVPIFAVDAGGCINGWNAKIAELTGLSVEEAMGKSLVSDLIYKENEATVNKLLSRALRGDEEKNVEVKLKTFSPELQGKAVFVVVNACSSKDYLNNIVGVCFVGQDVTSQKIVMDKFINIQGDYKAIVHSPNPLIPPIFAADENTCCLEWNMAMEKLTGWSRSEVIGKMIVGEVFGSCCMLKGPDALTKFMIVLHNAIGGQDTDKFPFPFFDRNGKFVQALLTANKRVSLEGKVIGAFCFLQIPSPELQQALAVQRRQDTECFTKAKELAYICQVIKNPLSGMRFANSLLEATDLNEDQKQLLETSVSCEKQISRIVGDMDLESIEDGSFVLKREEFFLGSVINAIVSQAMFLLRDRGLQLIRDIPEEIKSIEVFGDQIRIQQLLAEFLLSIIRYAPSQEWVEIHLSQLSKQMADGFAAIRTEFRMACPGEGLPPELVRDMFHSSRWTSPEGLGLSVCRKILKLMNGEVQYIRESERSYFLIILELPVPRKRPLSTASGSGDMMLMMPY

The next assay deals with T3, MBP-fused phyA^OPM (Arabidopsis thaliana, UniProt P14712 608-1122).
T3 sequence: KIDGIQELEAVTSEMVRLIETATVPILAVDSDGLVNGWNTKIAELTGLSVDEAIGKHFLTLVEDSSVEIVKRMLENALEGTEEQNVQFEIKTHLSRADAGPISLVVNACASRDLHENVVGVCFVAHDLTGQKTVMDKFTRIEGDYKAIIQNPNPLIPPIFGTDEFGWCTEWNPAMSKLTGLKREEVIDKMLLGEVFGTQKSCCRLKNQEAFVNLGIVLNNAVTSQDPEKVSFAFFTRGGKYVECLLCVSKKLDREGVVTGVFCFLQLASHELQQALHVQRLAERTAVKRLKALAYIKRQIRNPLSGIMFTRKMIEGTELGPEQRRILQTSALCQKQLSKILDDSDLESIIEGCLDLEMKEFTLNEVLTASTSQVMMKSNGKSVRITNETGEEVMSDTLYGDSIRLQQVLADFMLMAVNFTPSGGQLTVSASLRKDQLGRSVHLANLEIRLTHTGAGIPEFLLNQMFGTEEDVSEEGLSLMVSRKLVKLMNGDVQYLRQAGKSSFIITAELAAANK

Consider B1, for which the binding result in the assay with SBP-fused phyB^PSM is “binds”.
B2: the “fold strength against the phyB^OPM-APA interaction (m39 on m40)” value in assay [1] was roughly 2 fold.

B3: GST-PIF3 (natural protein)
chain: MPLFELFRLTKAKLESAQDRNPSPPVDEVVELVWENGQISTQSQSSRSRNIPPPQANSSRAREIGNGSKTTMVDEIPMSVPSLMTGLSQDDDFVPWLNHHPSLDGYCSDFLRDVSSPVTVNEQESDMAVNQTAFPLFQRRKDGNESAPAASSSQYNGFQSHSLYGSDRARDLPSQQTNPDRFTQTQEPLITSNKPSLVNFSHFLRPATFAKTTNNNLHDTKEKSPQSPPNVFQTRVLGAKDSEDKVLNESVASATPKDNQKACLISEDSCRKDQESEKAVVCSSVGSGNSLDGPSESPSLSLKRKHSNIQDIDCHSEDVEEESGDGRKEAGPSRTGLGSKRSRSAEVHNLSERRRRDRINEKMRALQELIPNCNKVDKASMLDEAIEYLKSLQLQVQIMSMASGYYLPPAVMFPPGMGHYPAAAAAMAMGMGMPYAMGLPDLSRGGSSVNHGPQFQVSGMQQQPVAMGIPRVSGGGIFAGSSTIGNGSTRDLSGSKDQTTTNNNSNLKPIKRKQGSSDQFCGSS
For B3, the binding result (in assay [2]; in the assay with SBP-fused phyB^PSM) was “binds” each time.

B4: GST-tagged PIF1 (natural protein)
chain: MHHFVPDFDTDDDYVNNHNSSLNHLPRKSITTMGEDDDLMELLWQNGQVVVQNQRLHTKKPSSSPPKLLPSMDPQQQPSSDQNLFIQEDEMTSWLHYPLRDDDFCSDLLFSAAPTATATATVSQVTAARPPVSSTNESRPPVRNFMNFSRLRGDFNNGRGGESGPLLSKAVVRESTQVSPSATPSAAASESGLTRRTDGTDSSAVAGGGAYNRKGKAVAMTAPAIEITGTSSSVVSKSEIEPEKTNVDDRKRKEREATTTDETESRSEETKQARVSTTSTKRSRAAEVHNLSERKRRDRINERMKALQELIPRCNKSDKASMLDEAIEYMKSLQLQIQMMSMGCGMMPMMYPGMQQYMPHMAMGMGMNQPIPPPSFMPFPNMLAAQRPLPTQTHMAGSGPQYPVHASDPSRVFVPNQQYDPTSGQPQYPAGYTDPYQQFRGLHPTQPPQFQNQATSYPSSSRVSSSKESEDHGNHTTG
Regarding B4, the binding result with MBP-fused phyB^OPM and with MBP-fused phyA^OPM was “binds” throughout.

The values above are taken from paper PMC12033333 (Nature Communications, 2025).
